{"source": "the nanobody polyreactivity screen of Harvey et al. (2022)"}
{"assay": "yeast display, Sf9 membrane polyspecificity reagent, FACS + sequencing; frameworks hold sequencing errors", "summary_of_the_method": "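After 36–48 hours of galactose induction, yeast (Saccharomyces cerevisiae BJ5465) displaying a synthetic nanobody library were stained at 4 °C for 1 hour with 10% biotinylated, detergent-solubilized Sf9 membrane reagent. Streptavidin microbeads enriched the stained cells before FACS sorting into low and high (top ~1%) gates on anti-HA and streptavidin fluorescence. Each clone's polyreactivity label reflects its gate of origin.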"}
{"sequence": "QVQHVESGGGLVQAGGSLLLSCAASGSTFGFYTMGWYRQAPGKERELVAAISWSTGRTYYADSVKGRFTISRDNAKNTVYLQMNSLKPEDTAVYYCNADGYPEQVYYYSAFQGMDYWGQGTQVTVSS", "polyreactivity (PSR sort gate)": "low polyreactivity"}
{"sequence": "QVQLVESGGGLVQAGGSLRLSCAASGRTFYFNGMGWYRQAPGKERELVATITASGTITYYADSVKGRFTISRDNAKNTVYLQLNSLKPEDTAVYYCAARQRGYYYSRRYDYWGQGTQVTVTS", "polyreactivity (PSR sort gate)": "high polyreactivity"}
{"sequence": "QVHLVESGGGLVQAGGSLRLSCAASGAMGWYRQAPGKERELVAAISSGNTNYADSVKGRFTISRDNAKNTVYLQMNSLKPEDTAVYYCAAEQPYGQKNTGLGVIDLDYWGQGTQVTVSS", "polyreactivity (PSR sort gate)": "low polyreactivity"}
{"sequence": "QVQLVESGGGLVQAGGSLRLSCAASGYTFPYYAMGWYIQAPGKERELVAAISRSGGTTYYADSVKGRFTISRDNAKNTVYLQLNSLKPEDTAVYYCAALYGSRSTYHMDDYWGQGTQVTVSS", "polyreactivity (PSR sort gate)": "high polyreactivity"}
{"sequence": "QDQLVESGGGLVQAGGSLRLSCAASGRIFPAYVMGWYRQAPGKERELVATIDNGGGTYYADSVKGRFTISRDNAKNTVYLQMNSLKPEDTAVYYCARDRHVRWGLKMDYWGQGTQVTVSS", "polyreactivity (PSR sort gate)": "low polyreactivity"}
{"sequence": "QVQLVESGGGLVQAGGSLRLSCAASGRIFYRNVMGWYRQAPGKERELVAAISYRGGSTSYADSVKGRFTISRDNAKNTVYLQMYSLKPEDTAVYYCNAGRIRPAYSDREYWGQGTQVTVSS", "polyreactivity (PSR sort gate)": "low polyreactivity"}
{"sequence": "QVQLVESLVGLVQAVGSLRLSCAAYGFIFAFDSMGCYRHAPRKERELVAAIRTGGSKNYADSVKGRFTISRDNAKTTVYLQMNSLKPEDTAVYNCAANGRVGFWRWERDYWGQGTQVTVSS", "polyreactivity (PSR sort gate)": "high polyreactivity"}
{"sequence": "QVQIVESGGGLVQAGGSLSLSCAASGRTFVLYVMGWYRQAPWKEREFVADINAGGGSTYYADSVKGRFTISRDNAKNTVYLQMNSLKPEDTAVYYCAATRDLGQLFRFGYWGQGTQVTVSS", "polyreactivity (PSR sort gate)": "low polyreactivity"}
{"sequence": "QVQLVESGGGLVQAGGSLRLSCAASGFTFGNNGMGWYRQAPGKERELVASISGGGDSTYYADSVKGRFTISRDNAKYTVYLQMNSLKREDTAVYYCAADYRQEPGYTGYYYWGQGTQVTVSS", "polyreactivity (PSR sort gate)": "low polyreactivity"}
{"sequence": "QVQLVESGGGLVQAGGSLRLSCAASGIIFSEYAMGWSRQAPGKERELVAAITKSGGSTYYADSVKGRFTISRDNAKNTVYLQMNSLKPEDTAVYYCAKKTPYIRGKDNYWGQGTQVNVSS", "polyreactivity (PSR sort gate)": "low polyreactivity"}
{"sequence": "QVQLVESGGGLVQAGGSLRLSCAASGRIFQQNGMGWYRQAPGKERELVAGINSGVGTNYADSVKGRFTISRDNAKNTVYLQRNSLKPEDTAVYYCAKSQPSYSGDRDYWGPGTQVTVSS", "polyreactivity (PSR sort gate)": "low polyreactivity"}
{"sequence": "QVQLVESGGGLVQAGGRLRLSCAASGRTFRGYAMGWYRQAPGKERELVAAITSGGSTNYADSVKGRFTISRDNAKYTVYLQMTSLKPEDTAVYYCAAEPYSWDTWVDYDYWGQGTQVTVSS", "polyreactivity (PSR sort gate)": "low polyreactivity"}
{"sequence": "QVQLVESGGGLVQAGGSLRLSCAASGRILAGYAMGWYRQAPGKERELVAAITRGGTTYYADSVKGRFTISRDNAKYTVYLQMNSLKPEDTAVVYTVSSAQYDYWGQGTQVTVSS", "polyreactivity (PSR sort gate)": "low polyreactivity"}
{"sequence": "QVQLVESGGGLVQAGGSLRLSCAASGRTFVWNVMGWYRKAPGKEREFVAAISGGSTYYADSVKGRFTISRDNAKNTVYLQMNRLKPEDTAVNYCAAASKLHPRYEYWGQGTQVTVSS", "polyreactivity (PSR sort gate)": "low polyreactivity"}
{"sequence": "QVQLVESGGGLVQAGGSLRLSCAASGSIFGSNAMGWYRQALGKERELVAAISDSTGSTYYADSVKGRFTISRDNAKNTVYLQMNSLKPEDTAVYYCDARTYYYRWHIYDYWGQGSQVTVSS", "polyreactivity (PSR sort gate)": "low polyreactivity"}
{"sequence": "QVQLVESGGGLVQAGGSLRLSCAASGSTFHNYAMGWYRQAPGKERELVAGISVRGGGTYYADSVKGRFTISRDNAKNTVYLQMNSLKPEDTAVYYCAKRSRYYYRYDYWGQGTQVTVSS", "polyreactivity (PSR sort gate)": "high polyreactivity"}
{"sequence": "QVQLVESGGGLVQAGGSLRLSCAASGFTFGENAMGWYRQAPGKERELVATISDSGDSTYYADSVKGRFTISRDNAKNTVYLQMNSLKPEDTAVYYCAAPLPHRGYDEGYWGQGTQVTVSS", "polyreactivity (PSR sort gate)": "low polyreactivity"}
{"sequence": "QVQLVESGGGLVQAGGSLRLSCAASGRIFVYNAKGWYRQAAGKERELVAAISYTGGTTYYADSVKGRFTISRDNAKKTVYLQMKSLKPEDTAVFFCAALWWWNRQVRYEYWGQGTQVTVSS", "polyreactivity (PSR sort gate)": "low polyreactivity"}
{"sequence": "QVKLVESGGGLVQAGGSLRLSCAASGFTFNANAMRWYRQAPGKERELVAAISLSGGRTYYADSVKGRFTISRDNAKNTVYLQMISLKPEDTAVYYCAASPDGSFRRFSRVVSGDYWGKGTQVTVSS", "polyreactivity (PSR sort gate)": "high polyreactivity"}
{"sequence": "QVQLVESGGGLVQAGGSLRLSCAASGSIFPYYTMGWYRQAPGKERELVAGISSGGSTNYADSVKGRFTISRDNAKNTVYLQMNSLKPEDTAVYYCNARRYWLRYDYWGQGTQVTVSS", "polyreactivity (PSR sort gate)": "low polyreactivity"}
{"sequence": "QVQLVESGGGLVQAGGSLSLSCAASGRTFYANAMGWNRQAPGKERELVATITRGGSTNYADSVKGRFTISRDNAKNTVYLQMNSLKPEDTAVYYCAARSYTSSHRHYYWGQGTQVTVSS", "polyreactivity (PSR sort gate)": "low polyreactivity"}
{"sequence": "QVQLVESGGGLVQAGGSLRLSCAASGSIFYLNAMGWYRQAPGKERELVATISNGGSTNYADSVKGRFTISRDNAKNTVYLQMNSLKPEDTAVYYCAAASGGTVVGEGDYWGQGTQVTVSS", "polyreactivity (PSR sort gate)": "low polyreactivity"}
{"sequence": "QVQLVESGGGLLQAGGSLLLSCAASGSNFAYYAMGWYRQAPGKERELVAAITRGAGRTFYADSVKGRFTISRDNAKNTVYLQMNSLKQEDTAVYYCAADVSGSKYDYWGQGTQVTVSS", "polyreactivity (PSR sort gate)": "high polyreactivity"}
{"sequence": "QVQLVESGGGLVQAGGSLRLSCAASGYIFEDYAMGWYRQAPGKERELVASIDSGSTTNYADSVKGRFTISRDNAKNTVYLQMNSLKPEDTAVYYCAADSYVSPEVRFDYWGQGTQVTVSS", "polyreactivity (PSR sort gate)": "low polyreactivity"}
{"sequence": "QVQLVESGGGLVQAGGSLRLSCAASGITFDLYDMGWYRQAPGKERELVAAITDADSTYYADSVKGRFTISRDNAKNTVYLQMNSLKPADTAVYYCAADFFYSVYSGHYDYWGQGTQVTVSS", "polyreactivity (PSR sort gate)": "low polyreactivity"}
{"sequence": "QVQLVESGGGLVQAGGSLRLSCAASGSIFVTNAMGWYRQAPGKERELVAAISWRGGSTYYADSVKGRFTISRDNAKNTVYLQMNSLKPEDTAVYYCNTYHPYWGSGFDYWGQGTQVTVSS", "polyreactivity (PSR sort gate)": "low polyreactivity"}
{"sequence": "QVQLVESCGGLVQEGGSLRLSCAASGRIFVVSAMGRYRQAPGKERELVAAISKRGGSTYYADSVKGRFTISRDNAKKTVYLQMNSLKPEDTAVYYCAKSRLVRGRSSYDYWGHGTQVTVSS", "polyreactivity (PSR sort gate)": "high polyreactivity"}
{"sequence": "QVQLVESGGGLVQAGGSLRLSCAASGFTYRTYAMGWYRQAPGKERELVAAITVSGGTYYADSVKGRFTISRDNAKNTVYFQMNSLKPEDTAVYYCTAKRFRTGFDYWGQGTQVTVSS", "polyreactivity (PSR sort gate)": "low polyreactivity"}
{"sequence": "QVQLVESGGGLVQAGGSLRLSCAASGSTFRYYAMGWYRQAPGKERDLVAAINRSGGSTYYADSVKGRFTISRDIAKNTVYLQMNSLKPEDTAVYYCGAPWGRHYTNPDDYWGQGTQVTVSS", "polyreactivity (PSR sort gate)": "high polyreactivity"}
{"sequence": "QVQLVESGGGLVQGGGSLRLSCAASGRIFKYYAMGWYRQAPGKERELVADISWRGGSTYYADSVKGRFTISRDNAKNTVYLQMNCLKPEDTAVYYCNAVSPRPGFDWGQGTQVTVSS", "polyreactivity (PSR sort gate)": "high polyreactivity"}
{"sequence": "QVQLVESGGGLVQAGGSLRLSSAASGRIFRYYAMGWYSQAPGKERELVAAISWSGGNSYYADSVKGRFTISRDNAKNTVYLQMNSLKTEDTAVYYCNAYYLPSRYDYWGQGTQVTVSS", "polyreactivity (PSR sort gate)": "high polyreactivity"}
{"sequence": "QVQLVESGGGLVQAGGSLRLSCAASGLILGYYAMGWYRQAPGKERELVAAITSSGTTTYYADSVKGRFTISRDNAKNTVYLQMNSLKPEDTAVYYWAALYIGKKRFNYWGQGTQVNVSS", "polyreactivity (PSR sort gate)": "high polyreactivity"}
